Two substances from PMC8794823 can be followed below.

Holding throughout (experiment): SPR
(In SPR one partner is held on a chip, and binding of the other changes the refractive index at the surface.)

Assay [1] has as its target CVB3/MKP3 (VP3-234Q) full particles (coxsackievirus B3, strain MKP).
Assay [2] addresses CVB3/HuN16-54/HuN/CHN/2016 (VP3-234D) full particles (coxsackievirus B3, isolate HuN16-54/HuN/CHN/2016).
Assay [3] has as its target CVB3/XJ12-36/XJ/CHN/2012 (VP3-234N) full particles (coxsackievirus B3, isolate XJ12-36/XJ/CHN/2012).
Assay [4] addresses CVB3/GS12-55/GS/CHN/2012 (VP3-234V) full particles (coxsackievirus B3, isolate GS12-55/GS/CHN/2012).

The Kd is the free concentration of one partner at which half of the binding sites on the other are occupied at equilibrium, for simple one-to-one binding. Low values mean higher affinity, high ones lower affinity. “soluble extracellular D1 and D2 domains of the human CAR protein (from UniProt P78310 20-236) (receptor)”: the dissociation constant Kd in assay [1] was determined as 3.16 µM.
For “soluble extracellular domain of the human CD55 protein (from UniProt P08174 35-285) (receptor)”, the equilibrium dissociation constant (Kd) in assay [1] is 0.465 µM; in assay [2] it was 46 µM; in assay [3] it was 7.8 µM; in assay [4], 10 µM.
